assay: soluble fraction after stress (log2 fold change); higher = more stays soluble; pooled small domains, quantitative proteomics; conditions: stress: 50 degC
Method in brief: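 Pooled custom libraries of small protein domains were each held under stress at 50°C. The read-out, high-throughput quantitative proteomics, tracked how much of each protein stayed soluble. This is reported as a base-two log fold change used to indicate aggregation propensity. Higher values mean more protein remains in solution.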

Sequence	soluble fraction (log2)
HMKNLNVIDLSALRTLELKESSDWTLIQKRFKLLVKKYHPDMNAGSKQYEEKLKKITLAYTHLKKLF	-2.42
HMSTGYEMVREVANQGSFSKAANSLGVSGPAVSKQVKSLEERLGLVLFHRTTRAVSLTQAGRQLVDVLN	0.0396
HMLPNLWVMGPGDHLWRVAEVAMTKHLGRPVANHEIDGYWRRLVALNRESLIDPDNPDLVFAGQVIELPPF	-2.32
HMEVPNLIGMTDKDLQRTYFQLPIEAAGDGSVVIKQLPEPGEKVKEGSVIRVLLG	0.171
HMSDNLTIVRAVYSGLSQRQAAATYHVSRNTVSLLLRHARNRGWLTLEDLAQLDNAAFSKSL	-4.13
HMGPELGENEKLIFDIIKKESKMELGILKAQVDLSNKKWDKALKGLATHGLTKVNKTDDGLFIELI	-0.095
HMTPFVINVDRHGAVIINEKTVDIDEAVVLARQERSQGKSILLAGDKKAPYEAIIRVLDALKQAG	-0.185
HMVMRHTVEHDAELLAVLRLMYPASSSTKLRKMLTQGRVLVNDDVVHRAKHGVASGDTVDVIVRQRAE	-1.03
HMGDIMLLFKENGKVYFLVGNQYTYVKNPTELSAIKTMMKQAGYDTHEHTNTTQVAYIKRLATE	-2.11
HMGDAVSRAYFALADDLLKGELTETVSEVLIRTRYELTSAQLQAVLHRIAQEGWAHKKPGYGWEFSAMLT	-1.83
HMNERTKIPLRKIEIGQAVYVDTLEKVGTVIDIQGKQFKVDLAGLPITVAARNLFYPLPQEAKP	-0.106
HMTDDALIGKTAQVTVAIKPGSVGQITARVGDERVERLARASADAEIAAGSLVTIKSIAGDSVIVAPE	0.144
HMTIPRLPFAFAKRFGIVLDNRPSGFVAAHKEGLLPHVLLEVQRFLGDAYTLEVVSDDDFERILGQVYQT	-3.27
HMSDNLSASERKALSHMEGMESVRSSEVADLLGMSQRGAQKLLNRLVDKGLASSFGANRNRRYSVE	0.306
HMFAADIGVGIVDADSLRVRSEPSTGAPIVTSLLRGTQVTVQEKLDGWYRITYNDVSGFVSAEYLIFTADE	-0.241
HMILKNVTSDLANKRLDKVASILFQTYSRTQIKKWILEGRVLVNGEISNPKDHVHENDEIEINPI	-1.04
HMNVEGEVVVPNVIGRTMKDVAVILSDLGLRMEAEGTGVAKSSQPQHGTSVKRGTVVQVRFEPLSVN	0.141
HMSETEEWTVEGGQAGDRIDRHVAAMLGDDVSRSQVQQWIRAGRVTVNGRAVKPSDTVEEGDRVAVDLPEP	0.0588
HMIPNPMTDRELEVLGLLASGKTYKQVARALDLSQSTVRNHLHNVYHKLNVVDRAQAVIVSRENGW	-0.289
HMGKINEIVANNIAILRKKNRLSLEELGKLSGVSKSMLALIEKGDGNPTLGILWKIANGLGVPFDELTRRP	-0.0928
HMEPTLVVARDKDAKSPLVAKLMKELGVDAAPRVIVDDSVIGGAKLSHNHTEIDATYKTALINLYQAIT	0.126
HMETDGGDLTPRERDVLSLIGRGLRNAEAASALGLSEHTIAGHIKSVYSKLGISTRAEAALLASRLGL	-0.0786
HMVLVGERRQKILEVVSSGKAVTVEELSRILHVSPSTVRRDLRFLESRGLLYRTHGGAMPPV	-1.1
HMARRLELEDIPVDEVLFTASRNLVDAIEVMDPSRQAPMIQPWLKQALEWAVGALGFSKEDAVATLTSD	-0.0273
HMVQVHEWTNKAGRTIKAKFVRGDAQSVTIFLGGRNFVLKIADLSEESQALARKLSAPPPPP	-0.607
HMNTWVEIFRAEDQGQIRDASLVLLAVKVAHRVDMNSSSAPWSLMVPAQDQQRAHHELTTYWQENAH	-1.43

Sequence	soluble fraction (log2)
HMYVADVVGMGIKDALYILENQGLRVVFTGKGVVKNQSIAVGEKIIKGEKIVLML	-1.7
HMAMTRTEYLNQLKHYLKRLPHTDYEEAMDYFKEYFEEAGPENEAQVIQDLGNPKEAAYEILSQLL	-0.253
HMDAATDAIKAEVRALLEMANAQGIDTESIMLEAHEQTRNATEQDYYEAAKSALEAAIAGSNRDR	0.0377
HMKELASKYEISEYMKFLIENLDKSNFFYPIEKRESMINNIFSIYSKADLSKKELNMLWGMLKKLR	-2.1
HMARHIHFEVHVQQAGRWSIHAQFGAGQREKAIEEAKKIEKTPGFDSVKVVKETYDSDLGNHQDTTIYRGP	-0.506
HMKKHALFTLFKHHNANGTTVWYARFWDDATQRYAIARSTGVLAQGKRERHDEAITVAREMASSIQFS	-2.6
HMDRENNITAGREILEKELSRLALNMKMVNLQDYAARFNVKHSDDILAGIGAGDIRPAHIVNAIAEKLT	0.144
HMSLPTYVQISEAIARRITAGQWLDGERLPPERTMAAEFGVAVGTLRKALSRLQDQKLLRRLQGSGNYINI	-1.57
HMAEVGDFTLAELIKVLFNEAGVLKAPVELRNDNTGGLQYRVGAYTDSETGWETIASIADLKGA	-0.436
HMNPGAYQVKAGEGLIGLSRRYNVPVDVLASVNNLNTTSSLRVGQTITIPTAAQVNRITQQAQ	0.287
HMQILNVFSKHGIKPISPQIGDKFDPQLHEAMFEAPVPGTKAGDIIEVSSEGFMLYDRLLRPAHVGVSSN	0.0206
HMIAGHLQIKNDYYYMVLSYTDSDGKRKQPWIPTGLPMKGNKKRAEKMLIETRQTYVPPVSSG	-3.27
HMAEQEELDAIRPDLDGQEIMDILGIKPGREVGAARNFLLELRLDEGPLGYDEAVSRLLTWWAERT	-0.13
HMASDLPTVTIMGKTFYTYVAKKGESFFGIANRFGWDPELLVKTNRELETPLDKGALIYYPVPKKPK	-0.199
HMIVAHEINRHLGESDQPVEIPDNRREGAVAELLKTFNNDDAFREMDDGKYEVALDGEKVREAARSLLA	0.027
HMKNVEEMILGKLKRKVSENLENASFEEIILVDAEKSVYKGIIKANYIEYYFRVNLSTGEVLSWKLK	-0.373
HMRNGGHTVYRNNGSLFIVVRDGDKLESVASEFRVSPKKLIKYNDLDIHSNVKTGDMIYIRPKA	-0.236
HMTATKDLPFSTFITEVEKGNITSVDIKGNQIEGTFSNGAKFKTYSPNYPNLVERLADKGVAISAGPS	0.047
HMEPKQIEVPNLVGISSAAARQTLSALGLHAVVKDSIWSETERIDTVLEQNPAGGALIKPEGTVYLRVSR	0.033
HMYGTERILAQLANYGIPNKLAFQIQDFYKEETLQIVEQQPYRLVEDIQGMGFKIADQLAEELGI	-0.317
HMVDDTGLPTVLISDGRLLERNLHRLHLDHTWLQRRLEENNIPSIQSLFLLTVDKQHQLYFLKK	-1.21
HMTYTMVAYGSQGDAVRQLQSELNRHGYQLDEDGVFGKKTRAAVRDYQKKNSLRLDGIAGDETWGSLLA	0.324
HMEEQELQLIQFPIASGSAWAGKAVRELILPPETLLVMLIRGTETMIPKGDTMVQEGDTAVLSASAYRDD	-0.434
HMAGLYSLLLVELPMERLPEDLPAIKAAWLKTGDTEAFKVALQAMSSRGWTIAVPGKHRDTQMTQL	0.35
HMIKRNPLDEIEGVGPGRKKALLHAFGSAKGVSRASVVDLVKVEGVSQALAERIHDFFHPATR	-0.113
HMDSLEIEEPITVKSLSAASGLKISDIIRKLMQEGIMATANQVIDREQAEAVLIDYNVDLVVKR	-0.248

Sequence	soluble fraction (log2)
HMELLPFEFARANRVLLRVNESDLVVSPDANHSAVTEILRLNNNIETIKSVDAEAFDKILSSIYSG	-0.765
HMQISMQNIASVKIDDLSDEQIQEFSTKYTAAGYSFPDVENVAKQKGMPSSEIEKLRQRVLTAQNTQEK	-0.163
HMKTGAKLKNLRKMKKLSQEEVAKVLNLSYSTLSRWENDTRIPTYEDLFKLGQFYGVSVDYLSDPN	-0.359
HMKRVPFAFAGDMLRWAAWLYHVEKRTQNEIAEELEVSRQTVANYLSEAMSQGLVQVQLRSDIIE	-1.52
HMIIIMKKSATNSEVRKVIERAEKEGLTVQVNQLEKQQVLGLVGDTRLIQDVAFLRYEGVENVERI	-0.776
HMAAEFERKNGIVYFFHSSEKPHLNYPHVHARYGEDTISISLRDFTVIGSFSSKKKQKEAVEYVKNK	-0.662
HMTKEEFLYELKKELSALDSAEATAYNLRYYSDYIDAEIAKGRSEQEVLDELGNPRWLVNSIKESG	0.122
HMELGYTPNNLRSVRAKYGLTQKQVAEITGLKTWHPVNRWEAPVEAAYHADMPHTKWLKLLDELSSR	-0.993
HMYIENIGDYLKSHDIKPSYQRIKVFEYLMQHKNHPTVDMIYKSLVDEIPTLSKTTVYNTLNLFIEKQI	-1.74
HMAYMETIERVEALAPGTKFNLKALFGTDWTQSRGTKLTLGKTFYEMVESGYVKTAKVLGKDSSNIMQYER	-0.107
HMNYYDLLGIPKSATKQQIRKAYRTKAKEFHPDVNGPFNSHMHFLLLKQAYETLMDANMRHVYDMALIS	-1.35
HMLKRLTVEFSAEMPKKMTSEQKEELASVLSEDPRPAYQNDENREYGLDYGEFSVKFKVKDGVLTVTSVTE	-0.0668
HMGMFNENLRFLRQKRQMSQQAFASILGIPRTTYSEYEKGNTEPNLKLLIRLSELLDVSLDNLISDDLTHN	-2.44
HMTTIAQMTGPQRAAVILLVLGEDHGRTIWQEFDDDEIRIITRAMAELGTVDADEVERLMLDFVGKLSS	-2.58
HMNTKHVFIIEQDDEKKRLDIFLVEKLQDSRSFLKKGIVEGWVKVNESVVKPNYKLKQKDQITVIIPP	-0.278
HMNEDDQLLKVLLAEPLRLEELYNLDLKPQGPYNLQTWIMVHLTELERDGLIARFPDGRYGPAR	-1.36
HMEPLIRTLEEQIAEKIKNYRKGTRVYDAEHVDRWISQLPEEERMVVLTETNRLLEQNYVDQAKLME	-0.107
HMDFDLIAIFEEQFARALSPIEINIIKEWKNSNYSDDMIVKALKEAVKSQVFNFRYIERILINWSQNG	-0.387
HMSSPEAAEVQRLLKDGQHVQALKIIDESLARNPKDPQMRFRRGVALSMLDRKNEALAVFQKLVED	-0.043
HMKHMTMYEAAKIAKEVGAPKLWLTHYSPSMTRPEEFMDDVRKIFPAAYAAKDGWTMELNFDEG	-0.493
HMLAAGTPLTVVTESSNLNIRQEPSTEAAVVGKAAKGEIVTLVEQTSGEWWKVSTKDGEEGYAYSRYL	0.341
HMDAQEAAWARKMMETLPEKQKLSVALRIEEGLSFKEIGEIIGSSEGAARVNYFHGIRRLRELL	-0.688
HMEEKEIGQTLSVKIRENVLSKLDMTRDLEDEEVKHIIEHEIWLAAKKHYISLEERNSIKRGIFNSL	-0.573
HMNPGHAERGKEIVEVFLRNNGELSMREIAEKSNITITQARRRVNKLLDQGIVEATAPVQSRNRKYRIK	0.134

Source: the domain aggregation screens of Martell et al. (2025)
